Results from FireProtDB (doi:10.1016/j.jmb.2008.02.039).

B1: Ribonuclease HII, O74035 (parent)
chain: MKIAGIDEAGRGPVIGPMVIAAVVVDENSLPKLEELKVRDSKKLTPKRREKLFNEILGVLDDYVILELPPDVIGSREGTLNEFEVENFAKALNSLKVKPDVIYADAADVDEERFARELGERLNFEAEVVAKHKADDIFPVVSAASILAKVTRDRAVEKLKEEYGEIGSGYPSDPRTRAFLENYYREHGEFPPIVRKGWKTLKKIAEKVESEKKAEERQATLDRYFRKV

Variants of: B1
Details: Thermococcus kodakarensis (strain ATCC BAA-918 / JCM 12380 / KOD1), pH 9, CD, reversible: Yes, structure 1IO2, whole UniProt chain shown; for ddG of mutation (higher = less stable) / denaturant m value / denaturant midpoint (higher = more stable) / unfolding free energy: 50 °C, GdnHCl, Tris-HCl 20 mM; for Tm / change of melting temperature, mutant - wild type (higher = more stable): Thermal, Gly-NaOH 20 mM

Row | Variant | ddG of mutation (higher = less stable) [kJ/mol] | denaturant m value [kcal/mol/M] | denaturant midpoint (higher = more stable) [M] | unfolding free energy [kJ/mol] | Tm [°C] | change of melting temperature, mutant - wild type (higher = more stable) [°C]
1 | MKIAGIDEAGRGPVIGPMVAAAVVVDENSLPKLEELKVRDSKKLTPKRREKLFNEILGVLDDYVILELPPDVIGSREGTLNEFEVENFAKALNSLKVKPDVIYADAADVDEERFARELGERLNFEAEVVAKHKADDIFPVVSAASILAKVTRDRAVEKLKEEYGEIGSGYPSDPRTRAFLENYYREHGEFPPIVRKGWKTLKKIAEKVESEKKAEERQATLDRYFRKV [I20A] | 18.5 | 5.74 | 1.05 | 25.3 | 76.1 | -8.4
2 | MKIAGIDEAGRGPVIGPMVIAAVVVDENSLPKLEELKVRDSKKLTPKRREKLFNEILGVLDDYVILELPPDVIGSREGTLNEFEVENFAKAANSLKVKPDVIYADAADVDEERFARELGERLNFEAEVVAKHKADDIFPVVSAASILAKVTRDRAVEKLKEEYGEIGSGYPSDPRTRAFLENYYREHGEFPPIVRKGWKTLKKIAEKVESEKKAEERQATLDRYFRKV [L92A] | 12 | 6 | 1.33 | 33.5 | 78.9 | -5.6
3 | MKIAGIDEAGRGPVAGPMVIAAVVVDENSLPKLEELKVRDSKKLTPKRREKLFNEILGVLDDYVILELPPDVIGSREGTLNEFEVENFAKALNSLKVKPDVIYADAADVDEERFARELGERLNFEAEVVAKHKADDIFPVVSAASILAKVTRDRAVEKLKEEYGEIGSGYPSDPRTRAFLENYYREHGEFPPIVRKGWKTLKKIAEKVESEKKAEERQATLDRYFRKV [I15A] | 8.91 | 4.3 | 1.47 | 26.4 | – | –
4 | MKIAGIDEAGRGPVIGPMVIAAVVVDENSLPKLEELKVRDSKKLTPKRREKLFNEILGVLDDYVILELPPDVIGSREGTLNEFEVENFAKALNSLKVKPDVIYADAADVDEERFAREAGERLNFEAEVVAKHKADDIFPVVSAASILAKVTRDRAVEKLKEEYGEIGSGYPSDPRTRAFLENYYREHGEFPPIVRKGWKTLKKIAEKVESEKKAEERQATLDRYFRKV [L118A] | 22 | 5.9 | 0.9 | 22.2 | 70.8 | -13.7
5 | MKIAGIDEAGRGPVIGPMVIAAVVVDENSLPKLEELKVRDSKKLTPKRREKLFNEALGVLDDYVILELPPDVIGSREGTLNEFEVENFAKALNSLKVKPDVIYADAADVDEERFARELGERLNFEAEVVAKHKADDIFPVVSAASILAKVTRDRAVEKLKEEYGEIGSGYPSDPRTRAFLENYYREHGEFPPIVRKGWKTLKKIAEKVESEKKAEERQATLDRYFRKV [I56A] | 16.6 | 5.35 | 1.13 | 25.3 | 75.8 | -8.7
6 | MKIAGIDEAGRGPVIGPMVIAAVVVDENSLPKAEELKVRDSKKLTPKRREKLFNEILGVLDDYVILELPPDVIGSREGTLNEFEVENFAKALNSLKVKPDVIYADAADVDEERFARELGERLNFEAEVVAKHKADDIFPVVSAASILAKVTRDRAVEKLKEEYGEIGSGYPSDPRTRAFLENYYREHGEFPPIVRKGWKTLKKIAEKVESEKKAEERQATLDRYFRKV [L33A] | – | – | – | – | 72.6 | -11.9
7 | MKIAGADEAGRGPVIGPMVIAAVVVDENSLPKLEELKVRDSKKLTPKRREKLFNEILGVLDDYVILELPPDVIGSREGTLNEFEVENFAKALNSLKVKPDVIYADAADVDEERFARELGERLNFEAEVVAKHKADDIFPVVSAASILAKVTRDRAVEKLKEEYGEIGSGYPSDPRTRAFLENYYREHGEFPPIVRKGWKTLKKIAEKVESEKKAEERQATLDRYFRKV [I6A] | – | – | – | – | 79.3 | -5.2
8 | MKIAGIDEAGRGPVIGPMVIAAVVVDENSLPKLEELKVRDSKKLTPKRREKLFNEILGVLDDYVILELPPDVIGSREGTLNEFEVENFAKALNSLKVKPDVAYADAADVDEERFARELGERLNFEAEVVAKHKADDIFPVVSAASILAKVTRDRAVEKLKEEYGEIGSGYPSDPRTRAFLENYYREHGEFPPIVRKGWKTLKKIAEKVESEKKAEERQATLDRYFRKV [I102A] | 16.9 | 5.9 | 1.12 | 27.7 | 73.8 | -10.7
9 | MKIAGIDEAGRGPVIGPMVIAAVVVDENSLPKLEELKVRDSKKLTPKRREKLFNEILGVLDDYVILELPPDVIGSREGTLNEFEVENFAKALNSLKVKPDVIYADAADVDEERFARELGERLNFEAEVVAKHKADDIFPVVSAASIAAKVTRDRAVEKLKEEYGEIGSGYPSDPRTRAFLENYYREHGEFPPIVRKGWKTLKKIAEKVESEKKAEERQATLDRYFRKV [L147A] | 10.9 | 6.19 | 1.38 | 35.7 | – | –
